US20190359653A1 (Genentech, published 2019)
Numbered stars: 1 amine (or outer) side, 2 acyl side, 3 side chain; on linkers, the order of the positions; unused ones are H or OH. Square brackets hold non-standard residues; d marks the D form. Ends that are not written are not given here. * marks the point of attachment. ξ: configuration not given here. Adp = 2-amino-3-decyloxy-propionic acid, CCCCCCCCCCOC[C@H](N[*:1])C(=O)[*:2]; Tbh = 6-hydroxy-L-norleucine, O=C([C@H](CCCCO[*:3])N[*:1])[*:2]; hPhe = N[C@@H](CCc1ccccc1)C(=O)O; ξGly(octyl) = CCCCCCCCC(N)C(=O)O; hLeu = CC(C)CC[C@H](N)C(=O)O; Octanoyl = CCCCCCCC(=O)*

T1: hFZD8 CRD-Fc (human, UniProt Q9H461 28-158, limits assumed)
T1 construct: domain: CRD; bought (R&D Systems); not shown: Fc part
T1 sequence (looked up): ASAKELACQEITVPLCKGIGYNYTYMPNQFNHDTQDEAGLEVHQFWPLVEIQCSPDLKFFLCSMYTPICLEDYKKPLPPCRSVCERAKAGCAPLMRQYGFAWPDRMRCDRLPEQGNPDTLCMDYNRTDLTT

B1: SEQ ID NO 32 (peptide)
peptide: SSDFSGCLSWCDLIFG
modifications: not fully specified; cysteine pairing not given here
notes: cyclic peptide library
B2: SEQ ID NO 35 (peptide)
peptide: TSDFSWCLSWCDLIFW
modifications: not fully specified; cysteine pairing not given here
notes: cyclic peptide library
B3: SEQ ID NO 37 (peptide)
peptide: FDFCSVMPHFIYCPGD
modifications: not fully specified; cysteine pairing not given here
notes: cyclic peptide library
B4: SEQ ID NO 33 (peptide)
peptide: FDFCSVMPQFIYCPGD
modifications: not fully specified; cysteine pairing not given here
notes: cyclic peptide library; also called Fz7-20
B5: SEQ ID NO 36 (peptide)
peptide: FDFCTVMPHFIYCPGD
modifications: not fully specified; cysteine pairing not given here
notes: cyclic peptide library
B6: SEQ ID NO 34 (peptide)
peptide: HLSDVCCSDWCDLVFW
modifications: not fully specified; cysteine pairing not given here
notes: cyclic peptide library
B7: SEQ ID NO 38 (peptide)
peptide: HLSDVFCSDWCDLVFW
modifications: not fully specified; cysteine pairing not given here
notes: cyclic peptide library
B8: SEQ ID NO 11 (peptide)
peptide: ISLIEAMIALDRVF
notes: also called Fz7-06
B9: SEQ ID NO 27 (peptide)
peptide: NPPPECFLSK
B10: SEQ ID NO 21 (peptide)
peptide: SCQMWSNLRVLFLSYW
B11: SEQ ID NO 3 (peptide)
peptide: PQDLLDWCHYMIVSSD
B12: SEQ ID NO 30 (peptide)
peptide: LSSGKKVSSYWFNFWF
B13: SEQ ID NO 2 (peptide)
peptide: TYFDDICNLILPWANP
B14: SEQ ID NO 6 (peptide)
peptide: DTDLHQWCLWFT
B15: SEQ ID NO 14 (peptide)
peptide: DTDLLQWCLWFT
B16: SEQ ID NO 29 (peptide)
peptide: ERRVCYPWFEVSQP
B17: SEQ ID NO 25 (peptide)
peptide: EHDLLLRAMNSFVLIF
B18: SEQ ID NO 23 (peptide)
peptide: IWFKGRFVEFSSLV
notes: also called Fz7-17
B19: SEQ ID NO 26 (peptide)
peptide: FCENPYIICW
B20: SEQ ID NO 12 (peptide)
peptide: PPNVHEGCWSMFPW
B21: SEQ ID NO 17 (peptide)
peptide: GDFWPGSLLWEILV
B22: SEQ ID NO 20 (peptide)
peptide: FLPDQHSHLFLPWGEP
B23: SEQ ID NO 28 (peptide)
peptide: VFFYHSLFFIKLILDP
B24: SEQ ID NO 31 (peptide)
peptide: FWFDFWFG
B25: SEQ ID NO 7 (peptide)
peptide: FWMLLQEGFAFWFP
B26: SEQ ID NO 22 (peptide)
peptide: VFVPFSELTSLC
B27: SEQ ID NO 8 (peptide)
peptide: FELLLDLGDLIRLW
B28: SEQ ID NO 10 (peptide)
peptide: ASELHDWCRMMFPW
B29: SEQ ID NO 19 (peptide)
peptide: LPLFFLSYVL
B30: SEQ ID NO 24 (peptide)
peptide: NAFWRDQCLEWFIICL
B31: SEQ ID NO 18 (peptide)
peptide: ILTFEYFWILGLIL
B32: SEQ ID NO 9 (peptide)
peptide: ACSYVIDLWNLCLR
B33: Fz7-21S (peptide)
peptide: Ac-LPSDDLEFWSHVMY-NH2
B34: dFz7-21Δ2 (Q519) (peptide)
peptide: Ac-SDDLEFWCHVMY-NH2
modifications: also: homodimer via Cys8 disulfide
B35: dFz7-21 (peptide)
peptide: Ac-LPSDDLEFWCHVMY-NH2
modifications: also: homodimer via Cys10-Cys10 disulfide
B36: Fz7-21N (peptide)
peptide: Ac-LPSDNLEFWCHVMY-NH2
B37: Fz7-21C (peptide)
peptide: Ac-LPSDDLEFW[dC]HVMY-NH2
B38: dFz7-21Δ2.L6KC (8) (peptide)
peptide: Ac-SDDK(Octanoyl)EFWCHVMY-NH2
modifications: also: dimer via disulfide bond at Cys8
B39: dFz7-21Δ2.L6Hof (peptide)
peptide: Ac-SDD[hPhe]EFWCHVMY-NH2
modifications: also: dimer via disulfide bond at Cys8
B40: dFz7-21Δ2.M13C8 (peptide)
peptide: Ac-SDDLEFWCHV[ξGly(octyl)]Y-NH2
modifications: also: dimer via disulfide bond at Cys8
B41: dFz7-21Δ2.L6Hol (peptide)
peptide: Ac-SDD[hLeu]EFWCHVMY-NH2
modifications: also: dimer via disulfide bond at Cys8
B42: dFz7-21Δ2.M13Tbh (peptide)
peptide: Ac-SDDLEFWCHV[Tbh]Y-NH2
modifications: also: dimer via disulfide bond at Cys8
B43: dFz7-21Δ2.M13Adp (peptide)
peptide: Ac-SDDLEFWCHV[Adp]Y-NH2
modifications: also: dimer via disulfide bond at Cys8

Each binder was assayed against T1, hFZD8 CRD-Fc (assay: spot phage ELISA).

Binder	signal:noise ratio
B1	1.39
B2	1.27
B3	1.12
B4	2.1
B5	2.01
B6	1.09
B7	1.28

What follows are binders tested against T2, hFZD7 CRD-Fc (human, UniProt O75084 33-185) (assay: spot phage ELISA).

Binder	signal:noise ratio
B1	28.4
B2	28.4
B3	27.5
B4	26
B5	27.4
B6	16.1
B7	17.5

Target: T1, hFZD8 CRD-Fc
Assay: spot phage ELISA
Remark: another data set of the same source

Binder	signal:noise ratio
B8	25.8
B9	1.1
B10	0.7
B11	1.3
B12	1
B13	1.4
B14	9.3
B15	6
B16	1.2
B17	1
B18	1
B19	0.8
B20	1.3
B21	1
B22	1
B23	1.3
B24	0.8
B25	6.4
B26	1
B27	2
B28	1.3
B29	1.1
B30	1.1
B31	1.1
B32	1.5

Target: T2, hFZD7 CRD-Fc
Assay: spot phage ELISA
Remark: another data set of the same source

Binder	signal:noise ratio
B8	27
B9	5.2
B10	1
B11	29.1
B12	3.5
B13	27.5
B14	30.2
B15	31.1
B16	2.6
B17	7.6
B18	7.7
B19	8.6
B20	28.1
B21	4.4
B22	5.3
B23	4.7
B24	4.2
B25	30.5
B26	7.8
B27	26.9
B28	28.9
B29	6.3
B30	5.5
B31	4.5
B32	27.6

These binders were tested against T3, FZD7 receptor of HEK293-TB cells (human, UniProt O75084 33-574) (assay: cell-based or functional assay).

Binder	Reduction in fold potency vs. dimer	IC50 (nM), TOPbrite reporter assay in HEK293-TB cells stimulated with mWnt3a (50 ng/mL)
B33	> 9000 fold	–
B34	1 fold	8.8 nM
B35	1 fold	11.1 nM

Target: T3, FZD7 receptor of HEK293-TB cells
Assay: cell-based or functional assay
Remark: another data set of the same source

Binder	IC50 (µM), Wnt3a-mediated β-catenin signaling, TOPbrite reporter in HEK293-TB cells (50 ng/mL mWnt3a)
B36	0.41 µM

Target: T3, FZD7 receptor of HEK293-TB cells
Assay: cell-based or functional assay
Remark: another data set of the same source

Binder	fold reduction of the potency of Wnt1 inhibition against Fz7-21 (FIG. 2D)	fold reduction of the potency of Wnt3a inhibition against Fz7-21 (FIG. 2D)
B37	16 fold	31 fold

Target: T3, FZD7 receptor of HEK293-TB cells
Assay: cell-based or functional assay
Remark: another data set of the same source

Binder	Best Fit IC50 (nM), Wnt3a-mediated β-catenin signaling in HEK293-TB cells (50 ng/mL mWnt3a)	Best Fit IC50 (nM), Wnt3a-mediated β-catenin signaling in HEK293-TB cells (50 ng/mL mWnt3a), n = 2
B34	4.3 nM	–
B38	1170 nM	–
B35	14.1 nM	–
B39	14.9 nM	–
B40	14000 nM	–
B41	–	16600 nM
B42	477 nM	–
B43	1410 nM	–
